Source: patent US10131702B2, “Glucagon-GLP-1-GIP triple agonist compounds” (priority 2013, dated 2018)

T1: human GIP receptor (human, UniProt P48546 22-466)
T1 sequence: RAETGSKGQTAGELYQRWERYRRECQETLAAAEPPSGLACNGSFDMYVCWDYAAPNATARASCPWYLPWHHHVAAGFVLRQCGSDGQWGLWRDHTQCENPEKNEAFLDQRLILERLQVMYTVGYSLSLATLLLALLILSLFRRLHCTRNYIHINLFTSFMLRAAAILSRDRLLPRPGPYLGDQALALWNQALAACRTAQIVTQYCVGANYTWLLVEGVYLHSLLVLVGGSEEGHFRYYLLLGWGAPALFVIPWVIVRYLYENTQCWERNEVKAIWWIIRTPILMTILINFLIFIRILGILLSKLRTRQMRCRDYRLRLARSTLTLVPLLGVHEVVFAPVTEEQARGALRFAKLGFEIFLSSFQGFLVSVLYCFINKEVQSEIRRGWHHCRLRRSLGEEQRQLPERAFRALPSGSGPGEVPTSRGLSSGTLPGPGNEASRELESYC

B1: Compound 20 (peptide)
peptide: YAQGTFTSDYSIYLEKKAAKEFVEWLLSA
HELM: PEPTIDE1{Y.[Aib].Q.G.T.F.T.S.D.Y.S.I.Y.L.E.K.K.A.A.K.E.F.V.E.W.L.L.S.A.[am]}$$$$V2.0
SMILES: CC[C@H](C)[C@H](NC(=O)[C@H](CO)NC(=O)[C@H](Cc1ccc(O)cc1)NC(=O)[C@H](CC(=O)O)NC(=O)[C@H](CO)NC(=O)[C@@H](NC(=O)[C@H](Cc1ccccc1)NC(=O)[C@@H](NC(=O)CNC(=O)[C@H](CCC(N)=O)NC(=O)C(C)(C)NC(=O)[C@@H](N)Cc1ccc(O)cc1)[C@@H](C)O)[C@@H](C)O)C(=O)N[C@@H](Cc1ccc(O)cc1)C(=O)N[C@@H](CC(C)C)C(=O)N[C@@H](CCC(=O)O)C(=O)N[C@@H](CCCCN)C(=O)N[C@@H](CCCCN)C(=O)N[C@@H](C)C(=O)N[C@@H](C)C(=O)N[C@@H](CCCCN)C(=O)N[C@@H](CCC(=O)O)C(=O)N[C@@H](Cc1ccccc1)C(=O)N[C@H](C(=O)N[C@@H](CCC(=O)O)C(=O)N[C@@H](Cc1c[nH]c2ccccc12)C(=O)N[C@@H](CC(C)C)C(=O)N[C@@H](CC(C)C)C(=O)N[C@@H](CO)C(=O)N[C@@H](C)C(N)=O)C(C)C
B2: Compound 22 (peptide)
peptide: YAQGTFTSDYSKYLEKKAQKEFVEWLLSA
HELM: PEPTIDE1{Y.[Aib].Q.G.T.F.T.S.D.Y.S.K.Y.L.E.K.K.A.Q.K.E.F.V.E.W.L.L.S.A.[am]}$$$$V2.0
SMILES: CC(C)C[C@H](NC(=O)[C@H](CC(C)C)NC(=O)[C@H](Cc1c[nH]c2ccccc12)NC(=O)[C@H](CCC(=O)O)NC(=O)[C@@H](NC(=O)[C@H](Cc1ccccc1)NC(=O)[C@H](CCC(=O)O)NC(=O)[C@H](CCCCN)NC(=O)[C@H](CCC(N)=O)NC(=O)[C@H](C)NC(=O)[C@H](CCCCN)NC(=O)[C@H](CCCCN)NC(=O)[C@H](CCC(=O)O)NC(=O)[C@H](CC(C)C)NC(=O)[C@H](Cc1ccc(O)cc1)NC(=O)[C@H](CCCCN)NC(=O)[C@H](CO)NC(=O)[C@H](Cc1ccc(O)cc1)NC(=O)[C@H](CC(=O)O)NC(=O)[C@H](CO)NC(=O)[C@@H](NC(=O)[C@H](Cc1ccccc1)NC(=O)[C@@H](NC(=O)CNC(=O)[C@H](CCC(N)=O)NC(=O)C(C)(C)NC(=O)[C@@H](N)Cc1ccc(O)cc1)[C@@H](C)O)[C@@H](C)O)C(C)C)C(=O)N[C@@H](CO)C(=O)N[C@@H](C)C(N)=O
B3: Compound 23 (peptide)
peptide: YAQGTFTSDYSIYLEKKAAKEFVEWLLSA
HELM: PEPTIDE1{Y.[Aib].Q.G.T.F.T.S.D.Y.S.I.Y.L.E.K.K.A.A.K.E.F.V.E.W.L.L.S.A.[am]}|PEPTIDE2{[CCCCCCCCCCCCCCCC(=O)[*:2]].[gGlu]}$PEPTIDE1,PEPTIDE2,17:R3-2:R2$$$V2.0
SMILES: CCCCCCCCCCCCCCCC(=O)N[C@@H](CCC(=O)NCCCC[C@H](NC(=O)[C@H](CCCCN)NC(=O)[C@H](CCC(=O)O)NC(=O)[C@H](CC(C)C)NC(=O)[C@H](Cc1ccc(O)cc1)NC(=O)[C@@H](NC(=O)[C@H](CO)NC(=O)[C@H](Cc1ccc(O)cc1)NC(=O)[C@H](CC(=O)O)NC(=O)[C@H](CO)NC(=O)[C@@H](NC(=O)[C@H](Cc1ccccc1)NC(=O)[C@@H](NC(=O)CNC(=O)[C@H](CCC(N)=O)NC(=O)C(C)(C)NC(=O)[C@@H](N)Cc1ccc(O)cc1)[C@@H](C)O)[C@@H](C)O)[C@@H](C)CC)C(=O)N[C@@H](C)C(=O)N[C@@H](C)C(=O)N[C@@H](CCCCN)C(=O)N[C@@H](CCC(=O)O)C(=O)N[C@@H](Cc1ccccc1)C(=O)N[C@H](C(=O)N[C@@H](CCC(=O)O)C(=O)N[C@@H](Cc1c[nH]c2ccccc12)C(=O)N[C@@H](CC(C)C)C(=O)N[C@@H](CC(C)C)C(=O)N[C@@H](CO)C(=O)N[C@@H](C)C(N)=O)C(C)C)C(=O)O
B4: Compound 24 (peptide)
peptide: YAQGTFTSDYSIYLEKKAAKEFVEWLLSA
HELM: PEPTIDE1{Y.[Aib].Q.G.T.F.T.S.D.Y.S.I.Y.L.E.K.K.A.A.K.E.F.V.E.W.L.L.S.A.[am]}|PEPTIDE2{[CCCCCCCCCCCCCCCC(=O)[*:2]].[gGlu]}$PEPTIDE1,PEPTIDE2,16:R3-2:R2$$$V2.0
SMILES: CCCCCCCCCCCCCCCC(=O)N[C@@H](CCC(=O)NCCCC[C@H](NC(=O)[C@H](CCC(=O)O)NC(=O)[C@H](CC(C)C)NC(=O)[C@H](Cc1ccc(O)cc1)NC(=O)[C@@H](NC(=O)[C@H](CO)NC(=O)[C@H](Cc1ccc(O)cc1)NC(=O)[C@H](CC(=O)O)NC(=O)[C@H](CO)NC(=O)[C@@H](NC(=O)[C@H](Cc1ccccc1)NC(=O)[C@@H](NC(=O)CNC(=O)[C@H](CCC(N)=O)NC(=O)C(C)(C)NC(=O)[C@@H](N)Cc1ccc(O)cc1)[C@@H](C)O)[C@@H](C)O)[C@@H](C)CC)C(=O)N[C@@H](CCCCN)C(=O)N[C@@H](C)C(=O)N[C@@H](C)C(=O)N[C@@H](CCCCN)C(=O)N[C@@H](CCC(=O)O)C(=O)N[C@@H](Cc1ccccc1)C(=O)N[C@H](C(=O)N[C@@H](CCC(=O)O)C(=O)N[C@@H](Cc1c[nH]c2ccccc12)C(=O)N[C@@H](CC(C)C)C(=O)N[C@@H](CC(C)C)C(=O)N[C@@H](CO)C(=O)N[C@@H](C)C(N)=O)C(C)C)C(=O)O
B5: Compound 19 (peptide)
peptide: YAQGTFTSDYSIYLDKKAAHDFVEWLLSA
HELM: PEPTIDE1{Y.[Aib].Q.G.T.F.T.S.D.Y.S.I.Y.L.D.K.K.A.A.H.D.F.V.E.W.L.L.S.A.[am]}$$$$V2.0
SMILES: CC[C@H](C)[C@H](NC(=O)[C@H](CO)NC(=O)[C@H](Cc1ccc(O)cc1)NC(=O)[C@H](CC(=O)O)NC(=O)[C@H](CO)NC(=O)[C@@H](NC(=O)[C@H](Cc1ccccc1)NC(=O)[C@@H](NC(=O)CNC(=O)[C@H](CCC(N)=O)NC(=O)C(C)(C)NC(=O)[C@@H](N)Cc1ccc(O)cc1)[C@@H](C)O)[C@@H](C)O)C(=O)N[C@@H](Cc1ccc(O)cc1)C(=O)N[C@@H](CC(C)C)C(=O)N[C@@H](CC(=O)O)C(=O)N[C@@H](CCCCN)C(=O)N[C@@H](CCCCN)C(=O)N[C@@H](C)C(=O)N[C@@H](C)C(=O)N[C@@H](Cc1c[nH]cn1)C(=O)N[C@@H](CC(=O)O)C(=O)N[C@@H](Cc1ccccc1)C(=O)N[C@H](C(=O)N[C@@H](CCC(=O)O)C(=O)N[C@@H](Cc1c[nH]c2ccccc12)C(=O)N[C@@H](CC(C)C)C(=O)N[C@@H](CC(C)C)C(=O)N[C@@H](CO)C(=O)N[C@@H](C)C(N)=O)C(C)C
B6: Compound 21 (peptide)
peptide: YAQGTFTSDYSKALDEKAAKEFVEWLLSA
HELM: PEPTIDE1{Y.[Aib].Q.G.T.F.T.S.D.Y.S.K.A.L.D.E.K.A.A.K.E.F.V.E.W.L.L.S.A.[am]}$$$$V2.0
SMILES: CC(C)C[C@H](NC(=O)[C@H](C)NC(=O)[C@H](CCCCN)NC(=O)[C@H](CO)NC(=O)[C@H](Cc1ccc(O)cc1)NC(=O)[C@H](CC(=O)O)NC(=O)[C@H](CO)NC(=O)[C@@H](NC(=O)[C@H](Cc1ccccc1)NC(=O)[C@@H](NC(=O)CNC(=O)[C@H](CCC(N)=O)NC(=O)C(C)(C)NC(=O)[C@@H](N)Cc1ccc(O)cc1)[C@@H](C)O)[C@@H](C)O)C(=O)N[C@@H](CC(=O)O)C(=O)N[C@@H](CCC(=O)O)C(=O)N[C@@H](CCCCN)C(=O)N[C@@H](C)C(=O)N[C@@H](C)C(=O)N[C@@H](CCCCN)C(=O)N[C@@H](CCC(=O)O)C(=O)N[C@@H](Cc1ccccc1)C(=O)N[C@H](C(=O)N[C@@H](CCC(=O)O)C(=O)N[C@@H](Cc1c[nH]c2ccccc12)C(=O)N[C@@H](CC(C)C)C(=O)N[C@@H](CC(C)C)C(=O)N[C@@H](CO)C(=O)N[C@@H](C)C(N)=O)C(C)C

molecular target: T1, human GIP receptor; assay: cell-based or functional assay

Binder | EC50 (cAMP induction) [nM]
B1 | 0.047
B2 | 0.18
B3 | 0.13
B4 | 0.1
B5 | 0.032
B6 | 0.18

molecular target: T2, human glucagon-like peptide 1 receptor (human, UniProt P43220 24-463); assay: cell-based or functional assay

Binder | EC50 (cAMP induction) [nM]
B1 | 0.0094
B2 | 0.028
B3 | 0.11
B4 | 0.091
B5 | 0.013
B6 | 0.014

molecular target: T3, human glucagon receptor (human, UniProt P47871 26-477); assay: cell-based or functional assay
T3 sequence (P47871 26-477): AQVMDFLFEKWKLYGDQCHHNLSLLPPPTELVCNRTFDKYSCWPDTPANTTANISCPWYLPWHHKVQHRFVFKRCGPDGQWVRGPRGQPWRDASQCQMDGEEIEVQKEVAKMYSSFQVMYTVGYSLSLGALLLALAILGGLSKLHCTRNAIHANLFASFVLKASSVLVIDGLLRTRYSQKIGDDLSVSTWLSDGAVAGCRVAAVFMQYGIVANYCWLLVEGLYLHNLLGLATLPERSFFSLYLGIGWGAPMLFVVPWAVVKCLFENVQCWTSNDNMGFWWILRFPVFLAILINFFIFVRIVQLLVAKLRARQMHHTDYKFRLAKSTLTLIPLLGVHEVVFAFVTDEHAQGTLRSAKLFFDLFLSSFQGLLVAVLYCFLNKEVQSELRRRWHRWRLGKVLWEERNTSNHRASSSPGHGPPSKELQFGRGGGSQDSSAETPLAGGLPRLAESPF

Binder | EC50 (cAMP induction) [nM]
B1 | 0.057
B2 | 0.76
B3 | 0.14
B4 | 0.28
B5 | 0.024
B6 | 0.1

molecular target: T1, human GIP receptor; assay: cell-based or functional assay; remark: another data set of the same source

Binder | EC50 (cAMP induction) [nM]
B1 | 0.009
B2 | 0.03
B3 | 0.11
B4 | 0.1
B5 | 0.013
B6 | 0.015

molecular target: T2, human glucagon-like peptide 1 receptor; assay: cell-based or functional assay; remark: another data set of the same source

Binder | EC50 (cAMP induction) [nM]
B1 | 0.057
B2 | 0.76
B3 | 0.14
B4 | 0.091
B5 | 0.024
B6 | 0.1

molecular target: T3, human glucagon receptor; assay: cell-based or functional assay; remark: another data set of the same source

Binder | EC50 (cAMP induction) [nM]
B1 | 0.057
B2 | 0.76
B3 | 0.14
B4 | 0.28
B5 | 0.024
B6 | 0.1
